Results on one molecule are retold here after patent US20240209099A1 (SUZHOU TRANSCENTA THERAPEUTICS, published 2024).

Experiment [1] addresses T1, Recombinant Human VEGFR2/KDR Protein, His tag (hVEGFR2-his) (human, UniProt P35968 20-764).
T1 construct: Expressed in HEK293, bought from ACRO Biosystems; also called human VEGFR2-his; Human VEGFR2/KDR-His
The experiment can be described thus: SPR (Biacore), antibody captured by anti-Fc, antigen 2.5-80 nM. A digest of the protocol: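 Human or mouse Fc-captured antibody (200–300 RU) on anti-Fc CM5 surface; antigen injected at 2.5–80 nM in HBS-EP pH 7.4 with 180 s association. Reference-cell-subtracted sensorgrams; regeneration with glycine pH 1.5.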
In general terms: Surface plasmon resonance follows binding to a sensor surface in real time, without labels.

In experiment [2] the target is T2, human VEGFR2 on HUVEC cells (human, UniProt P35968 20-1356).
T2 construct: also called hVEGFR2 on HUVEC
Nature of the experiment: flow cytometry on HUVEC cells, MFI, anti-human IgG (H+L)-PE. Here is the method: Same methods with Example 11. Briefly, Log phase HUVEC cells were collected and added to each tube. Then 100 μl/tube serial diluted humanized antibodies in FACS buffer were added and kept at 4° C. for 1 hr. Binding of antibodies to HUVEC was detected by PE signal of the 2nd antibody (anti-hIgG (H+L)-PE), which was added after the 1st antibodies. (see FIG. 15).
On the technique in general: Flow cytometry measures light scatter and fluorescence of single cells or particles in a stream.

In general, Kd refers to the constant that tells how readily two partners part at equilibrium. Broadly, the koff is the first-order rate constant of dissociation. Broadly, the kon is the second-order rate constant of association. For orientation: EC50 (read off the curve) means the concentration that produces a half-maximal response. Lower therefore signals a more potent agent.

B1: 54-H2L1 (humanized Mab54) (antibody, human IgG1, V domains shown)
VH: EVQLVESGGGLVKPGGSLRLSCAASGFTFSMYGMSWVRQAPGKRLEWVASISIGGSYTYYADSVKGRFTISRDNAKNTLYLQMNSLRAEDTAVYYCARELDGNYDYWGQGTTLTVSS
VL: DIVITQDELSLPVTFGESVSISCRSSKSLLYKDGKTYLNWFLQRPGQSPQLLIYLMSTRASGVSDRFSGSGSGTDFTLKISRVEAEDVGIYYCQQLVEYPFTFGSGTKLEIK
notes: also called 54-H2L1 (CHO); humanized 54 variant H2L1
For the molecule B1, in experiment [1], the Kd amounted to 2.51 nM, the off-rate (koff) came to 0.000138 s⁻¹ and the kon stood at 54800 M⁻¹ s⁻¹. Also, the “EC50 (read off the curve)” value in experiment [2] is about 0.3 µg/mL.
